Test results taken from patent US20060257406A1 (published 2006).
Where two headings read alike, the source gives them in different places.

How the values were obtained:
hen egg lysozyme [1] = biological target: T1, hen egg lysozyme (hen, UniProt P00698 19-147); assay: ELISA on coated hen egg lysozyme, detection with 9e10 and anti mouse IgG-HRP
T1 construct: also called HEL; HL

human TNFα [2] = biological target: T2, human TNFα (human, UniProt P01375 77-233); assay: cell-based or functional assay
T2 sequence (P01375 77-233 limits assumed): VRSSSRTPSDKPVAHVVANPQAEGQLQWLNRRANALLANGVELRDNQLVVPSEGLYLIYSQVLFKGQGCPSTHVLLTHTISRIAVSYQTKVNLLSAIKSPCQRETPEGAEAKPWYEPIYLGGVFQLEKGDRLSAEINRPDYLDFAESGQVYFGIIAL

human TNFα [3] = biological target: T2, human TNFα; assay: TNF receptor assay (ELISA): inhibition of TNF binding to plate-bound TNF receptor 1-Fc
mouse serum albumin [4] = biological target: T3, mouse serum albumin (mouse, UniProt P07724 25-608); assay: inhibition biacore: dAb premixed with MSA, binding to MSA-coated CM5 chip, Klotz plot (estimated Kd)
T3 construct: biotinylated MSA (about 2 biotins per molecule) in the capture ELISA; also called MSA
T3 sequence (P07724 25-608 limits assumed): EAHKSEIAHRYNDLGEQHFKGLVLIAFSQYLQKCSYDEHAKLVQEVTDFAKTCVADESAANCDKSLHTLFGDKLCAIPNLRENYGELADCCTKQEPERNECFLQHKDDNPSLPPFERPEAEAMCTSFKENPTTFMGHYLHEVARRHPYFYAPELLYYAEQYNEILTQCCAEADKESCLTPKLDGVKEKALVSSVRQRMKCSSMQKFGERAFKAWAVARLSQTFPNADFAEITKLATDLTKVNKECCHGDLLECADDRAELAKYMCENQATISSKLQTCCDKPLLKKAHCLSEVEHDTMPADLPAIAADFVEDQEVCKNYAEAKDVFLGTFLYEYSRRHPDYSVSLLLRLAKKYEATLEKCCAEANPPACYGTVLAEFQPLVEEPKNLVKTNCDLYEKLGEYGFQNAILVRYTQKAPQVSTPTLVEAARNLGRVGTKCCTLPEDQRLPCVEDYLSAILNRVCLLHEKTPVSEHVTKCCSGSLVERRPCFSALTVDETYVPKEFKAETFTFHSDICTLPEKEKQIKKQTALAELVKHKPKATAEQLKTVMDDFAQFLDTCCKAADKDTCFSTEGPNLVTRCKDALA
Description: The purified dabs were then analysed by inhibition biacore to determine Kd. […] Once the required concentrations of dAb had been determined, MSA antigen at a range of concentrations around the expected Kd was premixed with the dAb and incubated overnight. Binding to the MSA coated biacore chip of dAb in each of the premixes was then measured at a high flow-rate of 30 μl/minute.

mouse serum albumin [5] = biological target: T3, mouse serum albumin; assay: capture ELISA: dAb on protein L, biotinylated MSA, streptavidin-HRP
Description: (§1) Two rounds of selection were performed on serum albumin using each of the libraries separately. For each selection, antigen was coated on immunotube (nunc) in 4 ml of PBS at a concentration of 100 μg/ml. In the first round of selection, each of the three libraries was panned separately against HSA (Sigma) and MSA (Sigma). In the second round of selection, phage from each of the six first round selections was panned against (i) the same antigen again (eg 1st round MSA, 2nd round MSA) and (ii) against the reciprocal antigen (eg 1st round MSA, 2nd round HSA) resulting in a total of twelve 2nd round selections. In each case, after the second round of selection 48 clones were tested for binding to HSA and MSA. Soluble dAb fragments were produced as described for scFv fragments by Harrison et al, Methods Enzymol. 1996; 267:83-109 and standard ELISA protocol was followed (Hoogenboom et al. (1991) Nucleic Acids Res., 19: 4133) except that 2% tween PBS was used as a blocking buffer and bound dabs were detected with either protein LHRP (Sigma) (for the Vκs) and protein A—HRP (Amersham Pharmacia Biotech) (for the VHs).
Next, the serum albumin binding dAbs were tested for their ability to capture biotinylated antigen from solution. ELISA protocol (as above) was followed except that ELISA plate was coated with 1 μg/ml protein L (for the Vκ clones) and 1 μg/ml protein A (for the VH clones). Soluble dAb was captured from solution as in the protocol and detection was with biotinylated MSA or HSA and streptavidin HRP. The biotinylated MSA and HSA had been prepared according to the manufacturer's instructions, with the aim of achieving an average of 2 biotins per serum albumin molecule. […] Next, the dAbs were tested for their ability to bind MSA coated on a CM5 biacore chip.

human serum albumin = biological target: T4, human serum albumin (human, UniProt P02768 25-609); assay: capture ELISA: dAb on protein L, biotinylated HSA, streptavidin-HRP
T4 construct: also called HSA
Description: as §1
Next, the serum albumin binding dAbs were tested for their ability to capture biotinylated antigen from solution. ELISA protocol (as above) was followed except that ELISA plate was coated with 1 μg/ml protein L (for the Vκ clones) and 1 μg/ml protein A (for the VH clones). […]

hen egg lysozyme [6] = biological target: T1, hen egg lysozyme; assay: selection from a dAb library
human TNFα [7] = biological target: T2, human TNFα; assay: TNF receptor assay (ELISA): inhibition of TNF binding to plate-bound TNF receptor 1-Fc; remark: listed apart in the source
human TNFα [8] = biological target: T2, human TNFα; assay: ELISA on 1 ug/ml TNF, 200 nM IgG, anti-Fc-HRP
Description: A 96 well plate was coated with 100 ul of INF and TNFRI at 1 ug/ml concentration in PBS overnight at 4 C. 50 ul (200 nM) of IgG was then added to the wells and bound IgG was detected via anti-Fc-HRP.

human TNFα [9] = biological target: T2, human TNFα; assay: TNF receptor assay (ELISA): inhibition of TNF binding to plate-bound TNF receptor 1-Fc; remark: listed apart in the source

T1 sequence (P00698 19-147): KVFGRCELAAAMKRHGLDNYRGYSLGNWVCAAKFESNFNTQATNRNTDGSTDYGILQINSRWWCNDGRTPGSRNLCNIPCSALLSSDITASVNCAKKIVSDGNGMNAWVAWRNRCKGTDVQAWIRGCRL

B1: VH CH/VH Cκ dual specific Fab like fragment (HEL4 CH, TAR2-5 Cκ) (Fab, V domains shown, not shown: a dimerising Fc or GST; small tags and cut ends)
V domain 1: EVQLLESGGGLVQPGGSLRLSCAASGFRISDEDMGWVRQAPGKGLEWVSSIYGPSGSTYYADSVKGRFTISRDNSKNTLYLQMNSLRAEDTAVYYCASALEPLSEPLGFWGQGTLVTVSS
V domain 2: EVQLLESGGGLVQPGGSLRLSCAASGFTFDLYNMFWVRQAPGKGLEWVSFISQTGRLTWYADSVKGRFTISRDNSKNTLYLQMNSLRAEDTAVYYCAKTLEDFDYWGQGTLVTVSS
ELISA signal (hen egg lysozyme [1]): 0.154

B2: VH Cκ chain expressed alone (protein, not shown: a dimerising Fc or GST; small tags and cut ends)
VH: EVQLLESGGGLVQPGGSLRLSCAASGFTFDLYNMFWVRQAPGKGLEWVSFISQTGRLTWYADSVKGRFTISRDNSKNTLYLQMNSLRAEDTAVYYCAKTLEDFDYWGQGTLVTVSS
ELISA signal (hen egg lysozyme [1]): 0.069

B3: TAR1-5-19 5U homodimer (other)
chain: DIQMTQSPSSLSASVGDRVTITCRASQSIDSYLHWYQQKPGKAPKLLIYSASELQSGVPSRFSGSGSGTDFTLTISSLQPEDFATYYCQQVVWRPFTFGQGTKVEIKRGGGGSGGGGSGGGGSGGGGSGGGGSDIQMTQSPSSLSASVGDRVTITCRASQSIDSYLHWYQQKPGKAPKLLIYSASELQSGVPSRFSGSGSGTDFTLTISSLQPEDFATYYCQQVVWRPFTFGQGTKVEIKR
notes: also called TAR1-5-19 homodimer with (Gly4Ser)5 linker
CA (cell assay) ND50 (human TNFα [2]): ~3 nM | IC50 (human TNFα [3]): ~2 nM

B4: TAR1-5-19 7U homodimer (other)
chain: DIQMTQSPSSLSASVGDRVTITCRASQSIDSYLHWYQQKPGKAPKLLIYSASELQSGVPSRFSGSGSGTDFTLTISSLQPEDFATYYCQQVVWRPFTFGQGTKVEIKRGGGGSGGGGSGGGGSGGGGSGGGGSGGGGSGGGGSDIQMTQSPSSLSASVGDRVTITCRASQSIDSYLHWYQQKPGKAPKLLIYSASELQSGVPSRFSGSGSGTDFTLTISSLQPEDFATYYCQQVVWRPFTFGQGTKVEIKR
notes: also called TAR1-5-19 homodimer with (Gly4Ser)7 linker
CA (cell assay) ND50 (human TNFα [2]): ~15 nM | IC50 (human TNFα [3]): ~10 nM

B5: TAR1-5-19 3U homodimer (other)
chain: DIQMTQSPSSLSASVGDRVTITCRASQSIDSYLHWYQQKPGKAPKLLIYSASELQSGVPSRFSGSGSGTDFTLTISSLQPEDFATYYCQQVVWRPFTFGQGTKVEIKRGGGGSGGGGSGGGGSDIQMTQSPSSLSASVGDRVTITCRASQSIDSYLHWYQQKPGKAPKLLIYSASELQSGVPSRFSGSGSGTDFTLTISSLQPEDFATYYCQQVVWRPFTFGQGTKVEIKR
notes: also called TAR1-5-19 homodimer with (Gly4Ser)3 linker
CA (cell assay) ND50 (human TNFα [2]): ~30 nM | IC50 (human TNFα [3]): ~20 nM

B6: MSA16 (other)
VL: DIQMTQSPSSLSASVGDRVTITCRASQSIIKHLKWYQQKPGKAPKLLIYGASRLQSGVPSRFSGSGSGTDFTLTISSLQPEDFATYYCQQGARWPQTFGQGTKVEIK
notes: also called 21; dAb MSA16
Kd (mouse serum albumin [4]): 200 nM

B7: MSA26 (other)
VL: DIQMTQSPSSLSASVGDRVTITCRASQSIYYHLKWYQQKPGKAPKLLIYKASTLQSGVPSRFSGSGSGTDFTLTISSLQPEDFATYYCQQVRKVPRTFGQGTKVEIK
notes: also called 25; dAb MSA26
Kd (mouse serum albumin [4]): 70 nM

B8: anti-serum albumin Vκ dAb clones 2, 4, 7, 41 (other)
VL: DIQMTQSPSSLSASVGDRVTITCRASQSISSYLNWYQQKPGKAPKLLIYRASPLQSGVPSRFSGSGSGTDFTLTISSLQPEDFATYYCQQTYSVPPTFGQGTKVEIK
binding result (mouse serum albumin [5]): binds | binding result (human serum albumin): binds

B9: anti-serum albumin Vκ dAb clones 30, 35 (other)
VL: DIQMTQSPSSLSASVGDRVTITCRASQSIRRYLKWYQQKPGKAPKLLIYQASVLQSGVPSRFSGSGSGTDFTLTISSLQPEDFATYYCQQGLYPPITFGQGTKVEIK
binding result (mouse serum albumin [5]): binds

B10: anti-serum albumin Vκ dAb clones 46, 47, 52, 56 (other)
VL: DIQMTQSPSSLSASVGDRVTITCRASQSIFKSLKWYQQKPGKAPKLLIYNASYLQSGVPSRFSGSGSGTDFTLTISSLQPEDFATYYCQQVVYWPVTFGQGTKVEIK
notes: same printed CDRs as clone 55
binding result (mouse serum albumin [5]): binds

B11: HEL4 (other)
VH: EVQLLESGGGLVQPGGSLRLSCAASGFRISDEDMGWVRQAPGKGLEWVSSIYGPSGSTYYADSVKGRFTISRDNSKNTLYLQMNSLRAEDTAVYYCASALEPLSEPLGFWGQGTLVTVSS
notes: also called VH dAb HEL4; anti-hen egg white lysozyme dAb
binding result (hen egg lysozyme [6]): binds

B12: TAR1-5-19, MSA16 cys bonded heterodimer (bispecific antibody, V domains shown)
V domain 1: DIQMTQSPSSLSASVGDRVTITCRASQSIDSYLHWYQQKPGKAPKLLIYSASELQSGVPSRFSGSGSGTDFTLTISSLQPEDFATYYCQQVVWRPFTFGQGTKVEIKR
V domain 2: DIQMTQSPSSLSASVGDRVTITCRASQSIIKHLKWYQQKPGKAPKLLIYGASRLQSGVPSRFSGSGSGTDFTLTISSLQPEDFATYYCQQGARWPQTFGQGTKVEIKR
modifications: C-terminal Cys disulphide bonded to the C-terminal Cys of the MSA16 chain ; chain 1 pos 109 Cys and chain 2 pos 109 Cys are joined by an intermolecular disulphide bond (chemical coupling via dithiodipyridine); no tags
notes: two Vκ dAbs joined by a disulphide bond; separated from monomers by cation exchange; also called disulphide bonded heterodimer of TAR1-5-19 dAb and MSA16 dAb; heterodimeric species
IC50 (human TNFα [7]): ~18 nM

B13: TAR1/TAR2 IgG (bispecific antibody, V domains shown)
VH: EVQLLESGGGLVQPGGSLRLSCAASGFTFEWYWMGWVRQAPGKGLEWVSAISGSGGSTYYADSVKGRFTISRDNSKNTLYLQMNSLRAEDAAVYYCAKVKLGGGPNFGYRGQGTLVTVSS
VL: DIQMTQSPSSLSASVGDRVTITCRASQSIDSYLHWYQQKPGKAPKLLIYSASELQSGVPSRFSGSGSGTDFTLTISSLQPEDFATYYCQQVVWRPFTFGQGTKVEIKR
notes: expressed in COS7 cells with CD33 or IgG κ leader, purified on Protein A; also called the IgG; not shown: IgG1 heavy chain constant region (CH1 from the CH vector; hinge, CH2 and CH3 from the pigplus vector); light chain kappa constant region (CK domain from the CK vector)
binding result (human TNFα [8]): binds

B14: TAR1-5-19d5 (other)
scFv: DIQMTQSPSSLSASVGDRVTITCRASQSIDSYLHWYQQKPGKAPKLLIYSASELQSGVPSRFSGSGSGTDFTLTISSLQPEDFATYYCQQVVWRPFTFGQGTKVEIKRGGGGSGGGGSGGGGSGGGGSGGGGSDIQMTQSPSSLSASVGDRVTITCRASQSIYDALEWYQQKPGKAPKLLIYTASRLQSGVPSRFSGSGSGTDFTLTISSLQPEDFATYYCQQVMQRPVTFGQGTKVEIK
IC50 (human TNFα [9]): ~8 nM

B15: TAR1-5-19 d6 (other)
chain: DIQMTQSPSSLSASVGDRVTITCRASQSIDSYLHWYQQKPGKAPKLLIYSASELQSGVPSRFSGSGSGTDFTLTISSLQPEDFATYYCQQVVWRPFTFGQGTKVEIKRGGGGSGGGGSGGGGSGGGGSGGGGSGGGGSGGGGSDIQMTQSPSSLSASVGDRVTITCRASQSIYDALEWYQQKPGKAPKLLIYTASRLQSGVPSRFSGSGSGTDFTLTISSLQPEDFATYYCQQVMQRPVTFGQGTKVEIK
IC50 (human TNFα [9]): ~10 nM

B16: TAR1-5-19 cys hinge (other)
chain: DIQMTQSPSSLSASVGDRVTITCRASQSIDSYLHWYQQKPGKAPKLLIYSASELQSGVPSRFSGSGSGTDFTLTISSLQPEDFATYYCQQVVWRPFTFGQGTKVEIKREPKSGDKTHFCPPCP
notes: also called cysteine hinge linker format; hinge dimer
IC50 (human TNFα [3]): ~2 nM

B17: TAR1-5-19CYS dimer (other)
chain: DIQMTQSPSSLSASVGDRVTITCRASQSIDSYLHWYQQKPGKAPKLLIYSASELQSGVPSRFSGSGSGTDFTLTISSLQPEDFATYYCQQVVWRPFTFGQGTKVEIKRC
modifications: disulphide between the C-terminal Cys of the two chains
notes: separated from monomer by cation exchange; also called the dimer
IC50 (human TNFα [7]): 0.3 to 0.8 nM

B18: anti-serum albumin Vκ dAb clones 38, 54 (other)
VL: DIQMTQSPSSLSASVGDRVTITCRASQSISSYLNWYQQKPGKAPKLLIYRASPLQSGVPSRFSGSGSGTDFTLTISSLQPEDFATYYCQQTYRIPPTFGQGTKVEIK
binding result (mouse serum albumin [5]): binds | binding result (human serum albumin): binds
